Here are results for 3 sequences from the supplement of paper PMC5998384.

Data set [1] deals with HeLa Kyoto. Nature of the data set: solubility change mitosis vs G1/S (difference of NP-40 vs SDS log2 ratios) (log2 ratio difference); higher = more soluble in mitosis.
In data set [2] the test system is HeLa Kyoto. Briefly: thermal stability score vs G1/S (z-score of summed log2 fold changes over temperatures); higher = more thermally stable than in G1/S.
Data set [3] relates to HeLa Kyoto. Nature of the data set: solubility in G1/S (NP-40 vs SDS abundance) (log2 ratio); higher = more soluble. The following applies: cell cycle stage: G1/S.
The test system of data set [4] is HeLa Kyoto. Briefly: melting temperature (median over replicates), in situ; higher = more thermally stable.
The mark [5] stands for this setting: cell cycle stage: early G1 (4.5 h after nocodazole release).
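Wherever melting temperature (median over replicates), in situ is given: HeLa Kyoto cells synchronized by double thymidine or nocodazole block, proteins quantified by TMT10plex mass spectrometry, three independent biological replicates.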
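Wherever solubility change mitosis vs G1/S (difference of NP-40 vs SDS log2 ratios) is given: synchronized HeLa Kyoto cells (double thymidine block for G1/S, nocodazole release for mitosis), protein amounts in NP-40 versus SDS lysates quantified by mass spectrometry, three biological replicates.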
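Wherever solubility in G1/S (NP-40 vs SDS abundance) is given: HeLa Kyoto cells arrested at G1/S by double thymidine block, proteins quantified by TMT10plex mass spectrometry in mild NP-40 versus SDS extracts, three biological replicates.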
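Wherever thermal stability score vs G1/S (z-score of summed log2 fold changes over temperatures) is given: synchronized HeLa Kyoto cells, proteins quantified by TMT10plex mass spectrometry, three biological replicates, mitosis taken 0.5 h after nocodazole release, G1/S directly after double thymidine block.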

As for “MEQEPQNGEPAEIKIIREAYKKAFLFVNKGLNTDELGQKEEAKNYYKQGIGHLLRGISISSKESEHTGPGWESARQMQQKMKETLQNVRTRLEILEKGLATSLQNDLQEVPKLYPEFPPKDMCEKLPEPQSFSSAPQHAEVNGNTSTPSAGAVAAPASLSLPSQSCPAEAPPAYTPQAAEGHYTVSYGTDSGEFSSVGEEFYRNHSQPPPLETLGLDADELILIPNGVQIFFVNPAGEVSAPSYPGYLRIVRFLDNSLDTVLNRPPGFLQVCDWLYPLVPDRSPVLKCTAGAYMFPDTMLQAAGCFVGVVLSSELPEDDRELFEDLLRQMSDLRLQANWNRAEEENEFQIPGRTRPSSDQLKEASGTDVKQLDQGNKDVRHKGKRGKRAKDTSSEEVNLSHIVPCEPVPEEKPKELPEWSEKVAHNILSGASWVSWGLVKGAEITGKAIQKGASKLRERIQPEEKPVEVSPAVTKGLYIAKQATGGAAKVSQFLVDGVCTVANCVGKELAPHVKKHGSKLVPESLKKDKDGKSPLDGAMVVAASSVQGFSTVWQGLECAAKCIVNNVSAETVQTVRYKYGYNAGEATHHAVDSAVNVGVTAYNINNIGIKAMVKKTATQTGHTLLEDYQIVDNSQRENQEGAANVNVRGEKDEQTKEVKEAKKKDK [SPG20]”, the “solubility change mitosis (log2)” value in data set [1] is -0.0384. The thermal stability score came to 1.64 in data set [2] (setting [5]) and 1.92 in data set [2] (cell cycle stage: mitosis). In addition, the “solubility in G1/S (log2)” value in data set [3] amounted to 0.205. Also, the melting temperature is 49.8 °C in data set [4] (cell cycle stage: G1/S) and 50.4 °C in data set [4] (cell cycle stage: mitosis).
In the case of “MEQLSDEEIDHGAEEDSDKEDQDLDKMFGAWLGELDKLTQSLDSDKPMEPVKRSPLRQETNMANFSYRFSIYNLNEALNQGETVDLDALMADLCSIEQELSSIGSGNSKRQITETKATQKLPVSRHTLKHGTLKGLSSSSNRIAKPSHASYSLDDVTAQLEQASLSMDEAAQQSVLEDTKPLVTNQHRRTASAGTVSDAEVHSISNSSHSSITSAASSMDSLDIDKVTRPQELDLTHQGQPITEEEQAAKLKAEKIRVALEKIKEAQVKKLVIRVHMSDDSSKTMMVDERQTVRQVLDNLMDKSHCGYSLDWSLVETVSELQMERIFEDHENLVENLLNWTRDSQNKLIFMERIEKYALFKNPQNYLLGKKETAEMADRNKEVLLEECFCGSSVTVPEIEGVLWLKDDGKKSWKKRYFLLRASGIYYVPKGKAKVSRDLVCFLQLDHVNVYYGQDYRNKYKAPTDYCLVLKHPQIQKKSQYIKYLCCDDVRTLHQWVNGIRIAKYGKQLYMNYQEALKRTESAYDWTSLSSSSIKSGSSSSSIPESQSNHSNQSDSGVSDTQPAGHVRSQSIVSSVFSEAWKRGTQLEESSKARMESMNRPYTSLVPPLSPQPKIVTPYTASQPSPPLPPPPPPPPPPPPPPPPPPPPLPSQSAPSAGSAAPMFVKYSTITRLQNASQHSGALFKPPTPPVMQSQSVKPQILVPPNGVVPPPPPPPPPPTPGSAMAQLKPAPCAPSLPQFSAPPPPLKIHQVQHITQVAPPTPPPPPPIPAPLPPQAPPKPLVTIPAPTSTKTVAPVVTQAAPPTPTPPVPPAKKQPAFPASYIPPSPPTPPVPVPPPTLPKQQSFCAKPPPSPLSPVPSVVKQIASQFPPPPTPPAMESQPLKPVPANVAPQSPPAVKAKPKWQPSSIPVPSPDFPPPPPESSLVFPPPPPSPVPAPPPPPPPTASPTPDKSGSPGKKTSKTSSPGGKKPPPTPQRNSSIKSSSGAEHPEPKRPSVDSLVSKFTPPAESGSPSKETLPPPAAPPKPGKLNLSGVNLPGVLQQGCVSAKAPVLSGRGKDSVVEFPSPPSDSDFPPPPPETELPLPPIEIPAVFSGNTSPKVAVVNPQPQQWSKMSVKKAPPPTRPKRNDSTRLTQAEISEQPTMATVVPQVPTSPKSSLSVQPGFLADLNRTLQRKSITRHGSLSSRMSRAEPTATMDDMALPPPPPELLSDQQKAGYGGSHISGYATLRRGPPPAPPKRDQNTKLSRDW [RAPH1]”, the “solubility change mitosis (log2)” value in data set [1] was -0.187. The values for the thermal stability score in data set [2] (setting [5]) and in data set [2] (cell cycle stage: mitosis) were -1.35 and -0.404, respectively. The “solubility in G1/S (log2)” value in data set [3] was 0.0855. The melting temperature in data set [4] (cell cycle stage: G1/S) amounted to 52 °C; in data set [4] (cell cycle stage: mitosis) it was 52.3 °C.
For the sequence “MEQPGQDPTSDDVMDSFLEKFQSQPYRGGFHEDQWEKEFEKVPLFMSRAPSEIDPRENPDLACLQSIIFDEERSPEEQAKTYKDEGNDYFKEKDYKKAVISYTEGLKKKCADPDLNAVLYTNRAAAQYYLGNFRSALNDVTAARKLKPCHLKAIIRGALCHLELKHFAEAVNWCDEGLQIDAKEKKLLEMRAKADKLKRIEQRDVRKANLKEKKERNQNEALLQAIKARNIRLSEAACEDEDSASEGLGELFLDGLSTENPHGARLSLDGQGRLSWPVLFLYPEYAQSDFISAFHEDSRFIDHLMVMFGETPSWDLEQKYCPDNLEVYFEDEDRAELYRVPAKSTLLQVLQHQRYFVKALTPAFLVCVGSSPFCKNFLRGRKVYQIR [TTC4]”, in data set [1], the “solubility change mitosis (log2)” value is -0.0862. The figures for the thermal stability score in data set [2] (setting [5]) and in data set [2] (cell cycle stage: mitosis) were -0.209 and 0.287, respectively. Further, the “solubility in G1/S (log2)” value in data set [3] turned out to be 0.484. For the same sequence, the results for the melting temperature in data set [4] (cell cycle stage: G1/S) and in data set [4] (cell cycle stage: mitosis) were 49.8 °C and 49.4 °C, respectively.
